The values below come from patent US20040002450A1, “Y17 - isolated molecules comprising epitopes containing sulfated moieties, antibodies to such epitopes, and uses thereof” (priority 2000, published 2004).

Data set [1] has as its system MOLT-4 cells. The data set can be described thus: T-ALL (MOLT4) model in SCID mice. The class given is in vivo. The procedure: The in vivo mouse model for T-ALL uses SCID mice (Jackson Laboratories) injected with MOLT4 cells derived from a T cell leukemia patient.
In one experiment, SCID mice were pretreated with 100 mg/kg Cytoxan (CTX, Cyclophosphamid for injection, Mead Johnson). Eleven days after CTX injection, MOLT-4 cells were injected intravenously into the tail vein. Control mice were injected with PBS alone. One week post-MOLT-4 injection mice were injected with CONY1-Doxorubicin, which is a conjugate between scFv CON Y1 polypeptide, having KAK amino acid residues at its carboxy end and doxorubicin via a short organic linker; CONY1, which is a scFv antibody fragment derived from Y1 scFv in which the DNA sequences encoding the myc tag of Y1 were deleted and replaced with a DNA sequence encoding the amino acids lysine, alanine, lysine (KAK); or free Doxorubicin. The mice were injected three times per week for three weeks. […] (Table M).
Mice started to die 32 days post cell inoculation, and the surviving mice were sacrificed at this time. Bone marrow cells were analyzed by flow cytometry using anti-human CD44-FITC and Y1-Biotin/SAV-PE. Blood samples from several animals were monitored for platelet and white blood cell count. Livers were weighted and examined for appearance. Other organs were also examined for tumor appearance.
In a second experiment, SCID mice were i.v. injected with 2×10^7 MOLT-4 cells/mouse, 5 days post treatment with cyclophosphamide. Anti-cancer agents or PBS (negative control animals) were injected i.v. three times/week from day 5 post MOLT-4 cells injection and onward. On day 35, blood was drawn from the animals, the animals were sacrificed, and their livers were excised and weighed. In the untreated, PBS-treated MOLT-4 cell-bearing animals, the liver presented with a very massive tumor growth, and its size was increased 2-3-fold relative to PBS control uninfected animals. In this experiment, there were five treatment groups:
In parallel, portions of liver tissue were taken for histology and cell harvesting for FACS analysis. The survival rate of another group of treated animals was recorded relative to that of control untreated mice.
In a third experiment, using the identical SCID/MOLT-4 protocol, there were 6 groups: […]

Data set [2] has as its system KG-1 cells. Kind of data set: AML KG-1 model in SCID/NOD mice. The class given is in vivo. The protocol: The in vivo mouse model for human AML uses SCID/NOD mice (Jackson Laboratories) inoculated with KG-1 cells derived from a human AML cell line.
In a first experiment, NOD/SCID mice were pretreated with 100 mg/kg CYTOXAN®. Four days post CYTOXANT injection, KG-1 cells were injected intravenously into the tail vein of six groups of mice. (Table N, Groups 2 and 5-9). One group of mice (Table N, Group 1) was injected with PBS alone (control).
Beginning 19 days post KG-1 injection mice were treated with: CONY1, Doxorubicin, CONY1-Doxorubicin conjugate, or Mylotarg®. (Mylotarg® is a monoclonal antibody (anti CD33) conjugated chemically to calcheamicin recently approved by the FDA for treatment of AML patients age 60 and over in a first relapse.) Mice were treated once or three times per week for three weeks. […]
Mice were sacrificed from 60 to 65 days post cell injection. Bone marrow and blood samples were analyzed by flow cytometry using mouse anti human CD34-FITC (IQP 144F) (or anti CD44-FITC (MCA89F, Serotec)) and Y1-Biotin/SAV-PE. […]
An additional experiment was performed in which SCID-NOD mice were i.v. injected with 3×10^4 MOLT-4 cells/mouse 5 days post treatment with cyclophosphamide. […] Bone marrow was extracted and analyzed by FACS analysis using a commercially available antiCD44 antibody for the detection of MOLT-4 cells in the mice bone marrow cell population.

Data set [3] concerns the target T1, GPIb (glycocalicin) derived from platelets (Homo sapiens, UniProt P07359).
T1 construct: glycocalicin (soluble, extracellular fragment of GPIbα); from tissue; host or cells: human platelets
Kind of data set: ELISA to GC (glycocalicin), monomer versus dimer. The class given is binding. The protocol:
An ELISA assay was performed to ascertain the differences in binding between the monomer (the Y1 scFv-also known as Y1-kak) and the dimer Y1-cys-kak (the cysteine dimer) for antigen GPIb (glycocalicin) derived from platelets. A polyclonal anti single chain antibody and/or a novel polyclonal anti-VL (derived from rabbits) and anti-rabbit HRP, were used to detect the binding to GPIb. […] For instance, to reach 0.8 OD units 12.8 μg/ml of monomer was used compared to only 0.1 μg/ml of dimer.
100 ml of purified glycocalicin was incubated in a 96 flat well maxisorp plates, overnight at 4 degrees celsius. The plate was washed with PBST (PBS+0.05% tween) 3 times, then […] of PBST-milk (PBST+2% Non fat milk), for 1 hr at room temperature. The plate was washed with PBST, and the monomer or dimer (100 ml) was added in PBST-milk at different concentrations for 1 hr at room temp. Then the plate was washed and anti-VL polyclonal (derived from immunized rabbits with VL derived from Y1) (1:100 diluted in PBST-milk) was added for an hour. The plate was washed and anti-rabbit HRP was added for an additional hour. The plate was washed 5 times and 100 μl TMB substrate was added for approximately 15 minutes then 100 μl of 0.5H2SO4 was added to stop the reaction. The optical density of the plate was measured at 450 nm in an ELISA reader.

For data set [4] the following is noted: mouse, in vivo.
Experimental: The radioactive protein was then admixed with unlabeled CONY-1 to yield a solution of 75 μg/ml CONY-1 containing 2.5×10^6 CPM/ml in saline.
Male Balb-C mice were pretreated by intraperitoneal injection of 0.5 ml/mouse of 0.9% NaI. After 2 hours, the mice were injected intravenously with 0.2 ml of the labeled CONY-1 solution, resulting in a ^125I-CONY-1 dose of 15 μg (5×10^5 CPM) per mouse.
At various times after injection, blood was collected over EDTA, mice were sacrificed, and tissues were excised. Samples and organs were taken at 5, 15, and 30 minutes and at 1, 2, 4, 8, and 24 hours after injection. Two to four mice were used per time point. Plasma was separated and either counted for gamma radioactivity or subjected to precipitation with trichloroacetic acid (TCA). After centrifugation, TCA precipitates were subjected to gamma radioactivity counting. Liver, lung, kidney, spleen, and bone marrow samples were weighed and counted for gamma radioactivity. Plasma TCA precipitated radioactivity was plotted against time, and a two-compartment kinetics model was fitted. Organ/tissue total and specific radioactivity values were calculated.
Data set [5] relates to KG-1 cells. Kind of data set: Radioreceptor binding assay with KG-1 cells. On the set-up: species or system human. Particulars: 2 ng/tube 125I-Y1-IgG tracer. The procedure:
The assay system involved the use of radioactive ligands that were prepared by iodination with ^125I using chloramine T on the Y1-IgG construct or the Bolton-Hunter (CONY1) reagent. The assay tubes contained 5×10^6 KG-1 cells per 0.2 ml and a labeled tracer with varying amounts of unlabeled competitor, in PBS+0.1% BSA, pH 7.4. After one hour incubation with agitation at 4° C., the cells were thoroughly washed with cold buffer and taken for radioactivity counting.
For the radio receptor binding assay (RRA), 2 ng/tube of ^125I-Y1-IgG was used, and competition was performed with each of the three molecules. […] A rough estimate of the affinity of the Y1-IgG in this experiment is 2×10^−8 M. The corresponding affinity of the dimer is, therefore, 4×10^−8 M.
In a second RRA using labeled CONYL, a 100 ng/tube of ^125I-Y1-IgG was used, and competition was performed with each of the three molecules. […] A rough estimate of the affinity of CONY 1 in this experiment is 10^−6M. The corresponding affinity of the dimer is, therefore, 5×10^−8 M.

B1: CONY1: scFv derived from Y1 scFv in which the myc tag is replaced by lysine, alanine, lysine (KAK); SEQ ID NO: 204 (protein, listed as Homo sapiens)
scFv: MKYLLPTAAAGLLLLAAQPAMAEVQLVESGGGVVRPGGSLRLSCAASGFTFDDYGMSWVRQAPGKGLEWVSGINWNGGSTGYADSVKGRFTISRDNAKNSLYLQMNSLRAEDTAVYYCARMRAPVIWGQGTLVTVSRGGGGSGGGGSGGGGSSELTQDPAVSVALGQTVRITCQGDSLRSYYASWYQQKPGQAPVLVIYGKNNRPSGIPDRFSGSSSGNTASLTITGAQAEDEADYYCNSRDSSGNHVVFGGGTKLTVLGAAAKAK
B1: in data set [1] (first experiment, three times per week for three weeks, sacrifice 32 days post inoculation), the “liver weight versus free Doxorubicin-treated or untreated MOLT-4 mice” value is “weighted significantly less”. The survival result in data set [1] (mice from three groups with continued treatment) is given as “prolonged”. For the same molecule, the “liver weights / tumor growth in the liver” value in data set [1] (second experiment, day 35, i.v. three times/week, scFv or conjugate 75 μg/mouse, Doxorubicin 0.1 mg/kg) was “markedly inhibited tumor growth in the liver”. In addition, in data set [1] (third experiment, scFv 75 μg/mouse, IgG 5 μg/mouse), the “tumor growth (based on liver weights)” value is reported as “inhibited tumor growth”. In addition, the “percentage of KG-1 cells in bone marrow (in words)” value in data set [2] (KG-1 cells incubated in vitro with scFv before injection (groups 3 and 4)) was “significantly lower percentage”. In addition, the “development of the malignancy / prevalence of bone marrow cancer (in words)” value in data set [2] (additional experiment, day 60, CONY1 scFv 75 μg/mouse three times/week, Mylotarg 7 μg/mouse once a week) is on record as “no effect”. In addition, in data set [3], the “concentration used to reach 0.8 OD units” value worked out at 12.8 µg/mL. Moreover, the “distribution between plasma and erythrocytes (in words)” value in data set [4] was “did not adhere to erythrocytes”. Moreover, in data set [4] (iv), the “half-life of blood clearance, first compartment” value came out at 0.583 h and the “half-life of blood clearance, second compartment” value was 3.17 h.

B2: S-S Y1 dimer: Y1 sulfide bridge dimer compared with CONY1 and Y1-IgG in the radioreceptor assay (protein)
scFv: MEVQLVESGGGVVRPGGSLRLSCAASGFTFDDYGMSWVRQAPGKGLEWVSGINWNGGSTGYADSVKGRFTISRDNAKNSLYLQMNSLRAEDTAVYYCARMRAPVIWGQGTLVTVSRGGGGSGGGGSGGGGSSELTQDPAVSVALGQTVRITCQGDSLRSYYASWYQQKPGQAPVLVIYGKNNRPSGIPDRFSGSSSGNTASLTITGAQAEDEADYYCNSRDSSGNHVVFGGGTKLTVLGGGGCKAK
As to B2, in data set [5], the “affinity relative to the full Y1 antibody” value is “twofold lower”.
